The values below come from US20260098270.

One data set concerns the target Troponin I (cardiac) (UniProt P19429). In words: filter.
Data set [1] concerns the target Influenza hemagglutinin H3N2-HA (Influenza A virus) (UniProt P03438). Put plainly: BLI. On the technique in general: Biolayer interferometry detects binding as a change in optical thickness at a sensor tip.
For data set [2] the target is unchanged. Put plainly: filter. The conditions noted are these: dot blot.
For data set [3], the target named is Influenza hemagglutinin H5N1-HA (Influenza A virus) (UniProt Q8QPL1). Put plainly: filter.
The target in data set [4] is Influenza hemagglutinin H1N1-HA (Influenza A virus) (UniProt Q289M7).
Data set [5] has as its system Control lentivirus without spike. In words: filter. The following applies: three identical arms joined by Trebler, dot blot.

Like-named read-outs stand apart in the source and are kept apart here. Where only a bound is given, the exact number is not on record here.

With “GGCAGCAGGAAGACAAGACATGGGTGGCGGGGACGGGGCGATGGGAACTTAGATTGCTAGTGGTTCTGTGGTTGCTCTGT [TnAp1]”, the Kd in the data set with Troponin I (cardiac) worked out at 125 nM.

As to “GGCAGCAGGAAGACAAGACATGGGTGGCGGGGACGGGGCGATGGGAACTTAGATTGCTAGTGGTTCTGTGGTTGCTCTGTTTTTTCTCTCGC [Trimeric (trident) TnAp1]”, the Kd with Troponin I (cardiac) (three identical arms joined by Trebler, root TTTTT-Biotin) worked out at 4 nM.

“GGGTTTGGGTTGGGTTGGGTTTTTGGGTTTGGGTTGGGTTGGGAAAAA [RHA06]” returned a Kd in data set [1] of 8 nM.

Consider “GGGTTTGGGTTGGGTTGGGTTTTTGGGTTTGGGTTGGGTTGGGAAAAATTTTTCTCTCGC [Trident RHA06 + antisense 1:1]”, for which the Kd in data set [2] (Trebler-joined arms, antisense DNA of RHA06 hybridised at AS:aptamer 1:1, one arm blocked) came out at 0.31 nM.

The sequence “GGGTTTGGGTTGGGTTGGGTTTTTGGGTTTGGGTTGGGTTGGGAAAAATTTTTCTCTCGC [Trident RHA06 + antisense 2:1]” registered a dissociation constant Kd in data set [2] (Trebler-joined arms, antisense DNA of RHA06 hybridised at AS:aptamer 2:1, two arms blocked) of 7.9 nM.

For “GGGTTTGGGTTGGGTTGGGTTTTTGGGTTTGGGTTGGGTTGGGAAAAATTTTTCTCTCGC [Trimeric (trident) RHA06]”, the Kd is 0.09 nM in data set [2] (three identical arms (SEQ 12) joined by Trebler, root TTTTT-Biotin, RT); 0.13 nM in data set [3]; 0.07 nM in data set [4]; 0.12 nM in data set [1] (three identical arms (SEQ 12) joined by Trebler, root TTTTT-Biotin).

As to “TTACGTCAAGGTGTCACTCCGTAGGGTTTGGCTCCGGGCCTGGCGTCGGTCGTCTCTCGCGAAGCATCTCTTTGGCGTGTTTTTTTTTTTTTTT [TMSA52]”, the Kd in data set [5] was more than 0.5 nM.

The term Kd denotes the equilibrium constant for the complex coming apart. Read a high Kd as weaker binding.
